The text below walks through data of patent US20130287807A1, “COMPOUNDS FOR TREATING SYMPTOMS ASSOCIATED WITH PARKINSON'S DISEASE” (priority 2008, published 2013).

Sequences and labels used below:
B1: p4708 (peptide)
peptide: SSSFFPRC
B2: p4703 (peptide)
peptide: DTYFPRSC
B3: p4717 (peptide)
peptide: APMYFPHC
B4: p4727 (peptide)
peptide: NELFKHFC
B5: p4742 (peptide)
peptide: IGFRHDSC
B6: p4736 (peptide)
peptide: TGLMFKHC
B7: p4732 (peptide)
peptide: SAMRHSLC
B8: p4718 (peptide)
peptide: TYFSHSLC
B9: p4704 (peptide)
peptide: VELRHSRC
B10: p4706 (peptide)
peptide: AANYFPRC
B11: p4735 (peptide)
peptide: ATFRHSTC
B12: p4729 (peptide)
peptide: SQYFPRPC
B13: p4705 (peptide)
peptide: YSMRHDAC
B14: p4751 (peptide)
peptide: AYFPHTSC
B15: p4716 (peptide)
peptide: ATFRHSPC
B16: p4734 (peptide)
peptide: LQFKHSTC
B17: p4737 (peptide)
peptide: AEFSHWHC
B18: p4721 (peptide)
peptide: SLMRHSSC
B19: p4739 (peptide)
peptide: AEFMHSVC
B20: p4731 (peptide)
peptide: MLPFRHGC
B21: p4711 (peptide)
peptide: QVMRHHAC
B22: p4690 (peptide)
peptide: GQLKFPFC
B23: p4678 (peptide)
peptide: GEIRFALC
B24: p4673 (peptide)
peptide: GELWFPC
B25: p4679 (peptide)
peptide: GMIVFPHC
B26: p4686 (peptide)
peptide: GQIMFPRC
B27: p4669 (peptide)
peptide: GQIRFDHC
B28: p4689 (peptide)
peptide: GEILFGMC
B29: p4670 (peptide)
peptide: HMRLFFNC
B30: p4672 (peptide)
peptide: GELQFPPC
B31: p4684 (peptide)
peptide: GQILFPVC
B32: p4675 (peptide)
peptide: HQKMIFAC
B33: p4685 (peptide)
peptide: GELFFPKC
B34: p4698 (peptide)
peptide: GEIKFDHC
B35: p4693 (peptide)
peptide: THQRLWFC
B36: p4696 (peptide)
peptide: GEIRFGSC
B37: p4683 (peptide)
peptide: GDLKFPLC
B38: p4667 (peptide)
peptide: NDAKIVFC
B39: p4677 (peptide)
peptide: GELYFRAC
B40: p4671 (peptide)
peptide: GEMWFALC
B41: p4699 (peptide)
peptide: GEIQFGAC
B42: p4681 (peptide)
peptide: GEIYFERC
B43: p4687 (peptide)
peptide: HMRMYFEC
B44: p4694 (peptide)
peptide: GQIKFAQC
B45: p4697 (peptide)
peptide: GQIQFPLC
B46: p4680 (peptide)
peptide: GEIWFEGC
B47: p4676 (peptide)
peptide: GEMQFFIC
B48: p4674 (peptide)
peptide: SHQRLWFC
B49: p4750 (peptide)
peptide: APIQFRHC
B50: p4749 (peptide)
peptide: SNFRHSVC
B51: p4752 (peptide)
peptide: NSSELRHC
B52: p4755 (peptide)
peptide: SQSYFKHC
B53: p4748 (peptide)
peptide: YEFRHAQC

The first test addresses monoclonal antibody MV-001. Briefly: ELISA on peptide-BSA; code 2 = medium binding, OD halfmax 1:4000-20000.
Take B1: the OD halfmax 1:X (dilution factor of the parental antibody at half-maximal OD) (dilutionfactor(1:x)) lay in the range of 4000 to 20000. The same measure, in the same setting: the same measure for B2: 4000 to 20000; for B3: 4000 to 20000; for B4: 4000 to 20000. Still for that read-out and setting: to B5 belongs 4000 to 20000; to B6, 4000 to 20000; to B7, 4000 to 20000.

Regarding B8, the OD halfmax 1:X (dilution factor of the parental antibody at half-maximal OD) (dilutionfactor(1:x)) lay within 4000 to 20000. Same read-out and setting: the same measure for B9: 4000 to 20000. On the same count and under the same terms, the same measure for B10: 4000 to 20000; for B11: 4000 to 20000; for B12: 4000 to 20000. The same measure, in the same setting: the same measure for B13: 4000 to 20000. For B14, the OD halfmax 1:X (dilution factor of the parental antibody at half-maximal OD) (dilutionfactor(1:x)) is 4000 to 20000.

Take B15: the OD halfmax 1:X (dilution factor of the parental antibody at half-maximal OD) (dilutionfactor(1:x)) lay within 4000 to 20000. Same read-out and setting: the same measure for B16: 4000 to 20000; for B17: 4000 to 20000; for B18: 4000 to 20000.

B19: the OD halfmax 1:X (dilution factor of the parental antibody at half-maximal OD) (dilutionfactor(1:x)) fell in the range of 4000 to 20000. Still for that read-out and setting: to B20 belongs 4000 to 20000; to B21, 4000 to 20000.

The target of another test is monoclonal antibody MV-002. The experiment in a line: ELISA on peptide-BSA; code 3 = strong binding, OD halfmax 1:>320000. In general terms: ELISA stands for enzyme-linked immunosorbent assay.
B22: the OD halfmax dilution factor of the parental antibody (1:X) (dilutionfactor(1:x)) is above 320000. Still for that read-out and setting: the same measure for B23: above 320000; for B24: above 320000. In the case of B25, the OD halfmax dilution factor of the parental antibody (1:X) (dilutionfactor(1:x)) was above 320000. As for B26, the OD halfmax dilution factor of the parental antibody (1:X) (dilutionfactor(1:x)) was above 320000. With B27, the OD halfmax dilution factor of the parental antibody (1:X) (dilutionfactor(1:x)) is above 320000.

On to B28, for which the OD halfmax dilution factor of the parental antibody (1:X) (dilutionfactor(1:x)) was above 320000. The same measure, in the same setting: the same measure for B29: above 320000.

B30: the OD halfmax dilution factor of the parental antibody (1:X) (dilutionfactor(1:x)) was above 320000. With B31, the OD halfmax dilution factor of the parental antibody (1:X) (dilutionfactor(1:x)) is above 320000.

As to B32, the OD halfmax dilution factor of the parental antibody (1:X) (dilutionfactor(1:x)) is above 320000.

For the molecule B33, the OD halfmax dilution factor of the parental antibody (1:X) (dilutionfactor(1:x)) is above 320000.

As to B34, the OD halfmax dilution factor of the parental antibody (1:X) (dilutionfactor(1:x)) is above 320000. On the same count and under the same terms, the same measure for B35: above 320000. Still for that read-out and setting: the same measure for B36: above 320000; for B37: above 320000.

Turning to B38, the OD halfmax dilution factor of the parental antibody (1:X) (dilutionfactor(1:x)) was above 320000. For B39, the OD halfmax dilution factor of the parental antibody (1:X) (dilutionfactor(1:x)) was above 320000.

With B40, the OD halfmax dilution factor of the parental antibody (1:X) (dilutionfactor(1:x)) is above 320000. For B41, the OD halfmax dilution factor of the parental antibody (1:X) (dilutionfactor(1:x)) is above 320000.

As to B42, the OD halfmax dilution factor of the parental antibody (1:X) (dilutionfactor(1:x)) is above 320000. In the case of B43, the OD halfmax dilution factor of the parental antibody (1:X) (dilutionfactor(1:x)) was above 320000. On to B44, for which the OD halfmax dilution factor of the parental antibody (1:X) (dilutionfactor(1:x)) was above 320000.

On to B45, for which the OD halfmax dilution factor of the parental antibody (1:X) (dilutionfactor(1:x)) is above 320000. Same read-out and setting: to B46 belongs above 320000. As to B47, the OD halfmax dilution factor of the parental antibody (1:X) (dilutionfactor(1:x)) was above 320000. Still for that read-out and setting: to B48 belongs above 320000.

For another test, the target named is monoclonal antibody MV-001. Briefly: ELISA on peptide-BSA; code 3 = strong binding, OD halfmax 1:>20000.
Consider B49, for which the OD halfmax 1:X (dilution factor of the parental antibody at half-maximal OD) (dilutionfactor(1:x)) is above 20000. The same measure, in the same setting: the same measure for B50: above 20000; for B51: above 20000.

For the molecule B52, the OD halfmax 1:X (dilution factor of the parental antibody at half-maximal OD) (dilutionfactor(1:x)) is above 20000. The same measure, in the same setting: the same measure for B53: above 20000.
